{"source": "paper PMC11044963", "about": "“Probing the CRL4^DCAF12 interactions with MAGEA3 and CCT5 di-Glu C-terminal degrons” (PNAS Nexus, 2024)", "details_in_all_cases": "both partners purified", "key": {"DCAF12 (Δ1–78)": {"biological_target": "T1, DCAF12 (Δ1–78) (human, UniProt Q5T6F0 79-453)", "T1 construct": "DDB1- and CUL4-associated factor 12 (DCAF12), human, residues 79-453 (Δ1-78); also called DCAF12:79-453aa; N-terminally truncated DCAF12; source: Sf9 (baculovirus, pFBOH-MHL), purified (TALON beads, Superdex S200 26/60)", "assay": "fluorescence polarisation; direct binding; protein titrated from 4 µM in two-fold steps against 20 nM FITC peptide; 20 mM Tris pH 7.5, 150 mM NaCl, 5% glycerol, 0.5 mM TCEP, 0.01% Triton; 45 min at room temperature"}, "DDB1–DCAF12 complex": {"biological_target": "DDB1–DCAF12 complex (human, UniProt Q5T6F0 1-453; Q5T6F0 1-453)", "assay": "fluorescence polarisation; direct binding; protein titrated from 4 µM in two-fold steps against 20 nM FITC peptide; 20 mM Tris pH 7.5, 150 mM NaCl, 5% glycerol, 0.5 mM TCEP, 0.01% Triton; 45 min at room temperature"}, "[1]": {"biological_target": "T2, biotinylated DCAF12 (Δ1–78) (human, UniProt Q5T6F0 79-453, biotin)", "T2 construct": "DDB1- and CUL4-associated factor 12 (DCAF12), human, residues 79-453 (Δ1-78); also called DCAF12:79-453aa; DCAF12 Δ1–78 (pFBD-BirA); source: Sf9 (pFBD-BirA vector), purified (TALON beads, Superdex S200 26/60)", "assay": "SPR; biotinylated DCAF12 (Δ1–78) immobilised (~3,200 RU) on a streptavidin chip, Biacore 8K+; peptides injected, 8-point two-fold series from 1 µM; 10 mM HEPES pH 7.4, 150 mM NaCl, 3 mM EDTA, 0.005% P20, 5% glycerol, 2% DMSO; 15 °C; 1:1 Langmuir fit"}}, "note": "Where no end group is shown, it is not given here. The star is where a group is joined. FITC = O=C1OC2(c3ccc(O)cc3Oc3cc(O)ccc32)c2ccc(NC(=S)*)cc21"}
{"binder": "{FITC}-LHEWVLREGEE (11 C-terminal residues of melanoma-associated antigen 3 (MAGEA3); also called MAGEA3 peptide)", "note": "[FITC-labeled MAGEA3 C-terminal degron peptide]", "values": [{"measurement": "Kd", "setting": "DCAF12 (Δ1–78)", "result": 520, "unit": "nM"}, {"measurement": "Kd", "setting": "DDB1–DCAF12 complex", "result": 180, "unit": "nM"}]}
{"binder": "{FITC}-IRKPGESEE (nine C-terminal residues of T-complex protein 1 subunit epsilon (CCT5); also called CCT5 peptide)", "note": "[FITC-labeled CCT5 C-terminal degron peptide]", "values": [{"measurement": "Kd", "setting": "DCAF12 (Δ1–78)", "result": 370, "unit": "nM"}, {"measurement": "Kd", "setting": "DDB1–DCAF12 complex", "result": 80, "unit": "nM"}]}
{"binder": "LHEWVLREGEE (11 C-terminal residues of melanoma-associated antigen 3 (MAGEA3); also called MAGEA3 peptide)", "note": "[unlabeled MAGEA3 C-terminal degron peptide]", "values": [{"measurement": "Kd", "setting": "[1]", "result": 161, "unit": "nM"}]}
{"binder": "IRKPGESEE (nine C-terminal residues of T-complex protein 1 subunit epsilon (CCT5); also called CCT5 peptide)", "note": "[unlabeled CCT5 C-terminal degron peptide]", "values": [{"measurement": "Kd", "setting": "[1]", "result": 60, "unit": "nM"}]}
